Source: article PMC4060006, “SM proteins Sly1 and Vps33 co-assemble with Sec17 and SNARE complexes to oppose SNARE disassembly by Sec18” (eLife, 2014)

T1: Sec17–Golgi SNARE complex (Sec17 bound to the Golgi SNARE complex on GST-Sed5 SNARE domain) (S. cerevisiae, UniProt Q01590 170-319; P25385 1-222; P22804 1-123; P22214 1-188; P32602 1-292)
T1 construct: Sed5, Qa-SNARE, S. cerevisiae, aa170-319; Bos1, Qb-SNARE, S. cerevisiae, aa1-222; Bet1, Qc-SNARE, S. cerevisiae, aa1-123; Sec22, R-SNARE, S. cerevisiae, aa1-188; Sec17, S. cerevisiae; in most experiments Sec17 and Sly1 were added together to the immobilised SNARE complex; also called SNARE-Sec17 complex; Sec17–SNARE complex; source: assembled on …
T1 sequence (looked up) 1: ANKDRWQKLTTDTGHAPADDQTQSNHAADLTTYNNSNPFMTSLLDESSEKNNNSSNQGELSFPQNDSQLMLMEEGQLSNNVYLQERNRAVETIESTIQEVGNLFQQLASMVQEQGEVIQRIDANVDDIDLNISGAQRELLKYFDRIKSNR
T1 sequence (looked up) 2: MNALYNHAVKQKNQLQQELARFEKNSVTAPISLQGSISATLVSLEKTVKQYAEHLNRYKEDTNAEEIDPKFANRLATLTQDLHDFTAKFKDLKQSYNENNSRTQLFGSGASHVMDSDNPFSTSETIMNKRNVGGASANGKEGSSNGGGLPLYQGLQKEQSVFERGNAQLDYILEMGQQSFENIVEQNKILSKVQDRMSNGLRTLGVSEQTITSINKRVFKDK
T1 sequence (looked up) 3: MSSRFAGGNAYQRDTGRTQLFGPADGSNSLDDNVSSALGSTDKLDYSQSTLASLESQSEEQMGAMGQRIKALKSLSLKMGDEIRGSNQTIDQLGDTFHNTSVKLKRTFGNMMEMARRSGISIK
T1 sequence (looked up) 4: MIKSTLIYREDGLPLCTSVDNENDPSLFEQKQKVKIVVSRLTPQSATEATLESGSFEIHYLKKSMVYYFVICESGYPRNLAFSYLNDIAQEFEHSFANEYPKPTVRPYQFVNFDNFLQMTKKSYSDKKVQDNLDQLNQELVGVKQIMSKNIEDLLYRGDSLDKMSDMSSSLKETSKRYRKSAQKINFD
T1 sequence (looked up) 5: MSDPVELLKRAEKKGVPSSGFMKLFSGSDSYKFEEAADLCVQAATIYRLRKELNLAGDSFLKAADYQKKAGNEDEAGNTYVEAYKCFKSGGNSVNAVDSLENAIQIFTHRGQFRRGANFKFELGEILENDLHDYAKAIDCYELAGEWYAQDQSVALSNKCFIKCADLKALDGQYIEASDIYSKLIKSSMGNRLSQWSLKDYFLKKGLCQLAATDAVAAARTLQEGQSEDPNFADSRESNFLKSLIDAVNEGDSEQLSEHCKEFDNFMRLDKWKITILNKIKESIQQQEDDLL

T2: Golgi SNARE complex assembled on immobilized GST-Sed5 SNARE domain (S. cerevisiae, UniProt Q01590 170-319; P25385 1-222; P22804 1-123; P22214 1-188)
T2 construct: Sed5, Qa-SNARE, S. cerevisiae, aa170-319; Bos1, Qb-SNARE, S. cerevisiae, aa1-222; Bet1, Qc-SNARE, S. cerevisiae, aa1-123; Sec22, R-SNARE, S. cerevisiae, aa1-188; quaternary SNARE bundle, no membranes; also called Golgi SNARE bundle; S.C; source: assembled on glutathione sepharose from proteins made in E. coli; not shown: GST, N-terminal, kept; His6, N-terminal, …
T2 sequence (looked up) 1: T1 sequence (looked up) 1
T2 sequence (looked up) 2: T1 sequence (looked up) 2
T2 sequence (looked up) 3: T1 sequence (looked up) 3
T2 sequence (looked up) 4: T1 sequence (looked up) 4

B1: Sly1 (full length, aa1-667) (natural protein, S. cerevisiae, UniProt P22213 1-666, looked up)
chain: MAVEEIASRKDISLRDMQISAILKMLFLNKDLNNNDNITTITDDIFNQQEIIWKVLILDIKSTATISSVLRVNDLLKAGITVHSLIKQDRSPLPDVPAIYFVSPTKENIDIIVNDLKSDKYSEFYINFTSSLPRNLLEDLAQQVSITGKSDKIKQVYDQYLDFIVTEPELFSLEISNAYLTLNDPKTTEEEITGLCANIADGLFNTVLTINSIPIIRAAKGGPAEIIAEKLGTKLRDFVINTNSSSTSTLQGNDSLERGVLIILDRNIDFASMFSHSWIYQCMVFDIFKLSRNTVTIPLESKENGTDNTTAKPLATKKYDIEPNDFFWMENSHLPFPEAAENVEAALNTYKEEAAEITRKTGVTNISDLDPNSNNDTVQIQEVVKKLPELTAKKNTIDTHMNIFAALLSQLESKSLDTFFEVEQDPGSTKTRSRFLDILKDGKTNNLEDKLRSFIVLYLTSTTGLPKDFVQNVENYFKENDYDINALKYVYKLREFMQLSNMSLQNKSLEDGSDSAFKPSNLTLSGIYGLTEGKLQGGVGSLISGIKKLLPEKKTIPITNVVDAIMDPLNSSQKNLETTDSYLYIDPKITRGSHTRKPKRQSYNKSLVFVVGGGNYLEYQNLQEWAHSQLHNPKKVMYGSTAITTPAEFLNEISRLGASNSSNNDA
notes: Sly1, Golgi SM protein, S. cerevisiae, printed as full-length aa1-667; construct His6-(tev)-Sly1; as I recall the UniProt entry has 666 residues; the printed 667 may count the stop codon; also called His6-Sly1; Golgi SM protein; source: E. coli (pRIL plasmid), purified (Ni-NTA)
B2: Sec17 (natural protein, S. cerevisiae, UniProt P32602 1-292, looked up)
chain: T1 sequence (looked up) 5
notes: Sec17, S. cerevisiae; construct CBD-(intein)-Sec17 in pTYB12; an intein tag is as a rule cut off during purification; also called α-SNAP homolog; Sec18 adapter; source: E. coli (pRIL plasmid), purified
B3: Vps33 (natural protein, S. cerevisiae, UniProt P20795 1-691, looked up)
chain: MNRFWNTKKFSLTNADGLCATLNEISQNDEVLVVQPSVLPVLNSLLTFQDLTQSTPVRKITLLDDQLSDDLPSALGSVPQMDLIFLIDVRTSLRLPPQLLDAAQKHNLSSLHIIYCRWKPSFQNTLEDTEQWQKDGFDLNSKKTHFPNVIESQLKELSNEYTLYPWDLLPFPQIDENVLLTHSLYNMENVNMYYPNLRSLQSATESILVDDMVNSLQSLIFETNSIITNVVSIGNLSKRCSHLLKKRIDEHQTENDLFIKGTLYGERTNCGLEMDLIILERNTDPITPLLTQLTYAGILDDLYEFNSGIKIKEKDMNFNYKEDKIWNDLKFLNFGSIGPQLNKLAKELQTQYDTRHKAESVHEIKEFVDSLGSLQQRQAFLKNHTTLSSDVLKVVETEEYGSFNKILELELEILMGNTLNNDIEDIILELQYQYEVDQKKILRLICLLSLCKNSLREKDYEYLRTFMIDSWGIEKCFQLESLAELGFFTSKTGKTDLHITTSKSTRLQKEYRYISQWFNTVPIEDEHAADKITNENDDFSEATFAYSGVVPLTMRLVQMLYDRSILFHNYSSQQPFILSREPRVSQTEDLIEQLYGDSHAIEESIWVPGTITKKINASIKSNNRRSIDGSNGTFHAAEDIALVVFLGGVTMGEIAIMKHLQKILGKKGINKRFIIIADGLINGTRIMNSIS
notes: Vps33, SM protein of the vacuole, S. cerevisiae; also called vacuole SM protein; late endolysosomal SM; source: insect cells, Baculovirus system, purified
B4: GST-Sed5 full cytoplasmic domain (aa1-319) (domain or fragment, S. cerevisiae, UniProt Q01590 1-319, looked up)
chain: MNIKDRTSEFQQSVLSYKKRNKNFREQQRERLQEKESENFANNTTGNGKSVSEFQKKASGIAHEISSTAQLLSKLAVLAKRKPMFNDNPVEIAELSFLIKRKIYAIEQSLVQLSQLKKTDVNGNTSNQSSKQPSAVQHSKNVVNLLNTQMKNISGSFKDVLEERQRLEMANKDRWQKLTTDTGHAPADDQTQSNHAADLTTYNNSNPFMTSLLDESSEKNNNSSNQGELSFPQNDSQLMLMEEGQLSNNVYLQERNRAVETIESTIQEVGNLFQQLASMVQEQGEVIQRIDANVDDIDLNISGAQRELLKYFDRIKSNR
notes: Sed5, Golgi Qa-SNARE, S. cerevisiae, full cytoplasmic domain aa1-319 with N-peptide and Habc segments, no transmembrane domain; also called GST-Sed5FL; Sed5FL; not shown: GST, N-terminal, kept

How the values were obtained:
Settings in all cases: both partners purified
[1] = biological target: T1, Sec17–Golgi SNARE complex (Sec17 bound …); experiment: pull-down; quantitative: immobilised SNARE complex, SM concentration varied, with or without Sec17, 30°C; SYPRO Ruby with standard curves; fractional saturation against free SM, one-site model; apparent (Kdobs), non-equilibrium measurements
[2] = biological target: T1, Sec17–Golgi SNARE complex (Sec17 bound …); experiment: pull-down; stoichiometry: complexes assembled on immobilised SNARE complex under saturation binding conditions; SDS-PAGE, SYPRO Ruby, band intensities against standard curves of the purified proteins; apparent
[3] = biological target: T2, Golgi SNARE complex assembled on …; experiment: as above
[4] = biological target: T3, vacuole SNARE complex assembled on immobilized Vam3-GST (S. cerevisiae, UniProt Q12241 1-264; Q04338 1-194; P32912 190-316; Q12255 1-231); experiment: as above
T3 construct: Vam3, Qa-SNARE, S. cerevisiae, aa1-264; Vti1, Qb-SNARE, S. cerevisiae, aa1-194; Vam7, Qc-SNARE, S. cerevisiae, SNARE domain aa190-316; Nyv1, R-SNARE, S. cerevisiae, aa1-231; quaternary SNARE bundle, no membranes; also called vacuolar SNARE complex; SNARE bundle; source: assembled on glutathione sepharose from proteins made in E. coli; not shown: GST, C-terminal, …

[5] = biological target: T4, Sec17–vacuole SNARE complex (Sec17 bound to the vacuole SNARE complex on Vam3-GST) (S. cerevisiae, UniProt Q12241 1-264; Q04338 1-194; P32912 190-316; Q12255 1-231; P32602 1-292); experiment: pull-down; quantitative: immobilised SNARE complex, SM concentration varied, with or without Sec17, 30°C; SYPRO Ruby with standard curves; fractional saturation against free SM, one-site model; apparent (Kdobs), non-equilibrium measurements
T4 construct: Vam3, Qa-SNARE, S. cerevisiae, aa1-264; Vti1, Qb-SNARE, S. cerevisiae, aa1-194; Vam7, Qc-SNARE, S. cerevisiae, SNARE domain aa190-316; Nyv1, R-SNARE, S. cerevisiae, aa1-231; Sec17, S. cerevisiae; in most experiments Sec17 and the SM were added together to the immobilised SNARE complex; also called SNARE–Sec17 complex; Sec17–SNARE complex; source: assembled …

[6] = biological target: T3, vacuole SNARE complex assembled on …; experiment: as above
[7] = biological target: T4, Sec17–vacuole SNARE complex (Sec17 …); experiment: pull-down; stoichiometry: complexes assembled on immobilised SNARE complex under saturation binding conditions; SDS-PAGE, SYPRO Ruby, band intensities against standard curves of the purified proteins; apparent
[8] = biological target: B1; experiment: pull-down; full cytoplasmic domain of Sed5 (GST-Sed5FL, 500 nM) immobilised without assembled SNARE complex; Sly1 (10 µM) and Sec17; 30°C; Coomassie

T4 sequence (Q12241 1-264, chain 1 of 4): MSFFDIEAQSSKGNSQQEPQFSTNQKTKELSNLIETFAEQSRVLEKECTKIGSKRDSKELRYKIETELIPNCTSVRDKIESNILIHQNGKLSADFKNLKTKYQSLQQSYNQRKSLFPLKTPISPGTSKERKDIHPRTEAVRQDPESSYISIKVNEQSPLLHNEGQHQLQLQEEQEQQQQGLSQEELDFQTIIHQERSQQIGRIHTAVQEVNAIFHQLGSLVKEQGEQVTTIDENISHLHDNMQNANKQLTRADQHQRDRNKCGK
T4 sequence (Q04338 1-194, chain 2 of 4): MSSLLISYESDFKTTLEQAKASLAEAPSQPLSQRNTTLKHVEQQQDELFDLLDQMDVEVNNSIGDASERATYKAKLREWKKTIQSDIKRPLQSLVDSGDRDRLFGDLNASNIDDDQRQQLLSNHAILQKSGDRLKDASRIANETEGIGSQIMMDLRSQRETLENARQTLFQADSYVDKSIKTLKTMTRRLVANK
T4 sequence (P32912 190-316, chain 3 of 4): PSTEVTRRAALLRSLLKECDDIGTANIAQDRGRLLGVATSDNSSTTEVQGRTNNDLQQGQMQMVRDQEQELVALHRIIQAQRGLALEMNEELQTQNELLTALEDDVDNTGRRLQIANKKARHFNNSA
T4 sequence (Q12255 1-231, chain 4 of 4): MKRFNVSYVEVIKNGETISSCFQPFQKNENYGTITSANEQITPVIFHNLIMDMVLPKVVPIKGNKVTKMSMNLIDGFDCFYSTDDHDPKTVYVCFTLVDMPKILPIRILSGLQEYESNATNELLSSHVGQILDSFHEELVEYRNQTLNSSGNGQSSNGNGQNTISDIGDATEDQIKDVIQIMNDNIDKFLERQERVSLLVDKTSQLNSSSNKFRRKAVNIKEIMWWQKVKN
T3 sequence (Q12241 1-264, chain 1 of 4): as the sequence (Q12241 1-264, chain 1 of 4) above
T3 sequence (Q04338 1-194, chain 2 of 4): as the sequence (Q04338 1-194, chain 2 of 4) above
T3 sequence (P32912 190-316, chain 3 of 4): as the sequence (P32912 190-316, chain 3 of 4) above
T3 sequence (Q12255 1-231, chain 4 of 4): as the sequence (Q12255 1-231, chain 4 of 4) above

For B1, which Kd [1] is on record?
Its Kd is 1000 ± 100 nM.

And the “stoichiometry N” value [2]?
The value was 1 Sly1 per SNARE complex.

Which “stoichiometry N” value [3] does the source give for B2 here?
Its value is 3 Sec17 per SNARE complex.

What about the “stoichiometry N” value [4] of the same binder?
The value was 3 Sec17 per SNARE complex.

Which results are given for B3?
Kd [5]: 300 ± 10 nM; Kd [6]: 1600 ± 100 nM; stoichiometry N [7]: 1 Vps33 per SNARE complex

Does B4 bind [8]?
Result: binds
